Legend:
[1] = biological target: T1, SOD1(A4V) (Homo sapiens, UniProt P00441, A5V); assay: Circular dichroism of isolated SOD1(A4V) with cyclic peptide; type: biochemical; details: 40 μM SOD1(A4V), 25° C., 90 d
T1 construct: polyHis; made in house; host or cells: E. coli Origami 2(DE3)
Protocol: (§1) SOD1 or mutants thereof were overexpressed from the appropriate pET-SOD1 or PASK-SOD1 vectors in E. coli Origami 2(DE3) cells in LB medium containing 50 μg/mL kanamycin (for pET-SOD1) or 100 μg/mL ampicillin (for pASK-SOD1), 200 μM CuCl2, and 200 μM ZnCl2 by the addition of 0.01 mM IPTG (for pET-SOD1) or 0.2 μg/mL anhydrotetracycline (aTc) (for pASK-SOD1), either at 37° C. for 2-3 h or at 18° C. for about 16 h. Origami 2(DE3) cells were utilized in order to provide an oxidizing cytoplasmic environment in order to promote correct formation of disulfide bonds, which are required for proper SOD1 folding and function. Under these conditions, bacterially produced SOD1 is produced in dimeric and enzymatically active form, while it simultaneously co-exists with misfolded, soluble and insoluble SOD1 oligomeric/aggregated species (FIG. 3C). […]
Appropriate amounts of synthetic cyclic peptides were added to either 40 μM SOD1(A4V) or 50 μM Aβ solutions at the desired cyclic peptide:target protein molar ratio. SOD1(A4V) structural changes were monitored for 90 d at 25° C., under quiescent conditions. Aβ structural changes were monitored for 30 d at 33° C. under quiescent conditions. CD spectra in the range 190-260 nm were recorded on a JASCO J-715 spectropolarimeter (Jasco Co., Japan) using quartz cuvettes with 1 mm path length. […]

[2] = biological target: T2, SOD1(A4V)-GFP (Homo sapiens, UniProt P00441, A5V); assay: Fluorescence of E. coli cells co-expressing SOD1(A4V)-GFP and cyclic peptide; type: cell-based; details: co-expression of cyclic peptide; compared to random cyclic peptides from initial library
T2 construct: polyHis; expressed in transfected cells; host or cells: E. coli Origami 2(DE3) (BL21(DE3) for the FACS screen)
T2 sequence (P00441 whole entry A5V): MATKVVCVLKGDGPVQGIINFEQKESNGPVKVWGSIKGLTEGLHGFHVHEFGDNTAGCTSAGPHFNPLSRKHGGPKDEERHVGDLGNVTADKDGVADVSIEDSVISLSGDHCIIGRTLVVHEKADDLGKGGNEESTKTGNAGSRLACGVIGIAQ
Text: Electrocompetent E. coli BL21(DE3) cells (Novagen, USA) carrying either the expression vector pETSOD1(A4V)-GFP, which produces SOD1(A4V)-GFP under control of the strong bacteriophage T7 promoter, or pETAβ42-GFP, which produces Aβ42-GFP under control of the T7 promoter, were co-transformed with the combined pSICLOPPS-NuX1X2X3-X5 vector library. Approximately 10^8 transformants carrying both the vector library and either pETSOD1(A4V)-GFP or pETAβ42-GFP vectors were harvested, pooled together, and grown in Luria-Bertani (LB) liquid medium containing either 0.005% (pETSOD1(A4F)-GFP) or 0.002% (pETAβ42-GFP) L-arabinose—the inducer of cyclic peptide production—at 37° C. with shaking. When the optical density at 600 nm (OD600) of the bacterial culture was about 0.5, 0.01 (pETSOD1(A4F)-GFP) or 0.1 (pETAβ42-GFP) mM isopropyl-β-D-thiogalactoside (IPTG) was added to the medium to induce overexpression of the reporter. […] The isolated cells were re-grown and screened for additional rounds in an identical manner until the desired enrichment in high-fluorescence clones was achieved.
For SOD1 or SOD1-GFP production, BL21(DE3) (Novagen, USA) or Origami 2(DE3) cells (Novagen, USA) were transformed with the corresponding SOD1- or SOD1-GFP-encoding vector, either with the appropriate pSICLOPPS vector or alone. […]
Bacterial cells corresponding to 1 mL culture with OD600=1 were harvested by centrifugation and re-suspended in 100 μL phosphate-buffered saline (PBS), transferred to a 96-well FLUOTRAC 200 plate (Greiner Bio One International, Austria), and their fluorescence was measured using a TECAN Safire II-Basic plate reader (Tecan, Austria). Excitation was set at 488 nm and emission was measured at 510 nm.

[3] = biological target: T1, SOD1(A4V); assay: Thioflavin T staining of SOD1(A4V); type: biochemical; details: 90 d at 25° C.
Protocol: as §1, with “3C). Thus, the acquired protein is found in a state that resembles the conditions encountered in human cells under stressful or pathogenic conditions.” for “3C).”
40 μM SOD1(A4V) solutions, aged for 90 d at 25° C., with or without the selected synthetic peptides, were diluted to 10 μM with PBS. […] The mixture was agitated adequately by pipetting and immediately thereafter, fluorescence was monitored with excitation at 440 nm (EM slit=2.5 nm, PMT Voltage 700 V, response 0.4 s) using a HITACHI F-2500 (Japan) spectrofluorometer.

[4] = biological target: T3, Aβ42 (Homo sapiens, UniProt P05067); assay: Circular dichroism of Aβ42 with cyclic peptide; type: biochemical; details: 50 μM Aβ, 33° C., 30 d
T3 construct: one of the secondary products yields a 42-amino-acid-long peptide (Aβ42); purchased Eurogentec, Belgium; host or cells: chemical synthesis
Protocol: Synthetic Aβ40 and Aβ42 peptides were gently dissolved without vortexing in doubly deionized water to a final concentration of 100 μM. These solutions were then diluted by PBS addition (10 mM, pH 7.33) to achieve a final Aβ concentration of 50 μM.
Appropriate amounts of synthetic cyclic peptides were added to either 40 μM SOD1(A4V) or 50 μM Aβ solutions at the desired cyclic peptide:target protein molar ratio. SOD1(A4V) structural changes were monitored for 90 d at 25° C., under quiescent conditions. Aβ structural changes were monitored for 30 d at 33° C. under quiescent conditions. CD spectra in the range 190-260 nm were recorded on a JASCO J-715 spectropolarimeter (Jasco Co., Japan) using quartz cuvettes with 1 mm path length. Each reported spectrum is the average of three scans at a rate of 100 nm·min^−1 and a resolution of 0.5 nm.

T1 sequence (P00441 whole entry A5V): as above

cyclo-TWSVW (cyclic) [SOD1C5-4]
time-dependent conformational transition indicative of SOD1(A4V) aggregation [1]: significantly delayed
interaction with SOD1(A4V) by CD spectroscopy ([1]; 1:1 and 5:1 peptide:SOD1(A4V)): interacts with SOD1(A4V)
SOD1(A4V)-GFP fluorescence of E. coli cells [2]: highest levels of cellular SOD1(A4V)-GFP fluorescence
formation of large, amyloid-like SOD1(A4V) aggregates by ThT staining [3]: dramatically decreased
effect on aggregation process of Aβ42 (CD) [4]: did not have any effect
